The values that follow come from patent US20060026702A1, “Phosphoinositide 3-kinase mediated inhibition of GPCRs” (DUKE UNIVERSITY, priority 2002, published 2006).

The subject of one assay is β2AR. Nature of the assay: β2AR sequestration in HEK-293 cells by 125I-Cyanopindolol binding. Format: cell-based. The settings on record: 1 μM isoproterenol, 0-30 min; FLAG-HEAT co-transfected. Here is the method:
Determination of β2AR Sequestration in HEK-293 Cells by ^125I-Cyanopindolol (CYP) Binding—β2AR sequestration was performed as previously described. Briefly, HEK-293 cells were plated at a density of 2.5×10^6 cells/dish and transfected the following day with plasmids containing either the β2AR (150-250 ng), β2AR (250 ng) and HEAT domain (4 μg), PI3Kγ (4.0 μg) or ΔPI3Kγ (4.0 μg) cDNAs. Twelve hours after transfection cells were split into six well Falcon plates at a density of 750,000 cells/well. […] To determine the amount of internalized receptor, 100 μl aliquots of whole cells were added to 150 μl of binding buffer (75 mM Tris-HCl, 10 mM MgCl2, 5 mM EDTA (pH 7.5)). Total binding was determined in the presence of 175 pM ^125I-CYP alone, the number of internalized receptors were determined by using 175 pM ^125I-CYP plus 100 nM CGP12177, and non-specific binding was determined using 175 pM ^125I-CYP plus 1 μM propranolol. Sequestration was calculated as the ratio of (specific receptor binding of ^125I-CYP in the presence of CGP12177)/(specific receptor binding of ^125I-CYP in the absence of CGP12177).

The next assay has as its target T1, AT1AR-GFP (Rattus norvegicus, UniProt P25095).
T1 construct: expressed in transfected cells; host or cells: HEK 293
T1 sequence (P25095 1-359): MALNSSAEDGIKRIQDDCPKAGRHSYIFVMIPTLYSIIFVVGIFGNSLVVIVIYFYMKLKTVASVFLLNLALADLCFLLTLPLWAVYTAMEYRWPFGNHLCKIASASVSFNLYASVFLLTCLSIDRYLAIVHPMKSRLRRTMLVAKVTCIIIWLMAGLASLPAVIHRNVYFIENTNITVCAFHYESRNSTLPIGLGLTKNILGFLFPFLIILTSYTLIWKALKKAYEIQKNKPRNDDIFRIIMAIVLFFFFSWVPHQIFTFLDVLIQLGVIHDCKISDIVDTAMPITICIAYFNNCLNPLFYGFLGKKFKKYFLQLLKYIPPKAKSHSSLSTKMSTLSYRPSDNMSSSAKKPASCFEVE
Nature of the assay: Endocytosis of AT1AR-GFP in live cells by confocal microscopy. Format: cell-based. The note with it: Angiotensin II 10 μM, 20 min; HEAT co-expressed. Here is the method:
Disruption of the endogenous βARK1/PI3K interaction by the HEAT protein attenuated AT1AR endocytosis. Endocytosis of AT1AR-GFP in live cells was monitored for 20 min following angiotensin (10 μM) stimulation in the absence or presence of HEAT protein co-expression using confocal microscopy. HEK 293 cells were transfected with 2 μg Angiotensin II Type 1 Receptor, or with 2 pg Angiotensin II Type 1 Receptor and 2 μg HEAT, and stimulated for 20 minutes with 10 μM Angiotensin II. AT1AR internalization was followed in the same cell after agonist stimulation. Prior to agonist, the distribution of AT1AR-GFP was found distinctly at the plasma membrane (FIG. 15, 0 min). […] With time, this was followed by the formation of cytoplasmic aggregates, and then with the complete loss of membrane fluorescence (FIG. 15, 5-20 min). […] In FIG. 15, panels on the left represent cells transfected with the AT1AR-GFP alone (panels show the same cell monitored at 0, 5, 10, 15, and 20 min following stimulation). Panels on the right represent cell transfected with AT1AR-GFP and HEAT (panels show the same cell monitored as above). In the absence of HEAT, agonist caused the internalization AT1ARs as shown by the formation of distinct cytoplasmic aggregates and complete loss of membrane fluorescence.

B1: HEAT: 197 amino acid HEAT domain of PI3Kγ, FLAG epitope-tagged (SEQ ID NO: 2), overexpressed in cells (protein, listed as Homo sapiens)
chain: MDYKDDDDKHPIALPKHQPTPDDRVRAEMPNQLRKQLEAIIATDTAEDKELLWHFRYESLKHPKAYPKLFSSVKWGQQEIVAKTYQLLARREVWDQSALDVGLTMQLLDCNFSDENVRAIAVQKLESLEDDDVLHYLLQLVQAVKFEPYHDSALARFLLKRGLRNKRIGHFLFWFLRSEIAQSRHYQQRFAVILEAYLRGCGTA
modifications: FLAG tag
Consider B1, for which the “attenuation in the rate of β2AR sequestration” value with β2AR is over 60%. Moreover, the “receptor endocytosis (redistribution of AT1AR-GFP)” value in the assay with AT1AR-GFP is “completely inhibited”.
